For this assay, the target named is purified human vitronectin (Invitrogen) (UniProt P04004). Kind of assay: ELISA. The settings on record: 20 nM Vn, read off a plot.
Sequence of UniProt P04004 (P04004 whole entry, looked up): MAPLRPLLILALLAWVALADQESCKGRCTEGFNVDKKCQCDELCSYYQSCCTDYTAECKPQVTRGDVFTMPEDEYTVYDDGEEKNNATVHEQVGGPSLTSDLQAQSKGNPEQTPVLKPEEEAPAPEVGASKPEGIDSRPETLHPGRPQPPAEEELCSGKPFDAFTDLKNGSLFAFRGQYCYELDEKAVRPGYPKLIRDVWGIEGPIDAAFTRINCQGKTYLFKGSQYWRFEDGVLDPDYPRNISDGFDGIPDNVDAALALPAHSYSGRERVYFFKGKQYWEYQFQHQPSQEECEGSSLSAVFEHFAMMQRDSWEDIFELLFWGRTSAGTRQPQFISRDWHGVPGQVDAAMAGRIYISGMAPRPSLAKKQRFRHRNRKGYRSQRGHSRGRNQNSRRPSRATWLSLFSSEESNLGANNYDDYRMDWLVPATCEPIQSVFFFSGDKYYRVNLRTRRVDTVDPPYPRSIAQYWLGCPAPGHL

On to “synthetic peptide of loop 2 of P5 from NTHi KR317 L5A; V8A; Q10A; T11A; R12A”, for which, under “parent: est. 0.23”, the response (absorbance at 450 nm) came to 0.095.

For “synthetic peptide of loop 2 of P5 from NTHi KR271 I5A”, the response (absorbance at 450 nm) (parent: est. 0.12) was 0.1.

Consider “synthetic peptide of loop 2 of P5 from NTHi P652 V3A; F5A; L7A”, for which the response (absorbance at 450 nm) (parent: est. 0.97) was determined as 0.45.

Regarding “synthetic peptide of loop 2 of P5 from NTHi 3655 L5A; V8A; S12A”, the response (absorbance at 450 nm) (parent: est. 0.28) amounted to 0.13.

The values are drawn from publication PMC12718013.
